Measurements published in the supplement of paper PMC12764529.
± gives the half width of the 95% confidence interval.

Assay: folding stability dG unfold from chymotrypsin proteolysis; higher = more stable
In short: (§1)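 Bayesian fitting of sequencing counts gave K50 for each design. Unfolding free energy followed by setting this against a sequence-predicted unfolded-state K50 and a shared folded-state K50, either per protease or with trypsin and chymotrypsin combined. The designs, under 80 residues and lacking cysteine, were digested in a PA-tagged cDNA display format at 11 threefold-diluted protease concentrations and without protease, and only those with AlphaFold2 dimer inter-PAE above 15 were kept.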

| Sequence | folding stability dG unfold |
| --- | --- |
| SAGGSAPPKRRERIIQIPIKMKPGQTADEMVDNIADWIMDLLPPDMRIEIEVEYHPENGWIMVKIESAGGSA [r15_739_TrROS] | 2.09 ± 0.084 kcal/mol |
| SAGGSAGGSAGPVVVEVDGKLVIFNPEDGTVTVFEFDKDGKLVEEKEFTVPPEVTLVEEDSAGGSAGGSAGG [r17_385_TrROS_Hall] | 1.06 ± 0.039 kcal/mol |
| SMPLLVKVDTPEQREKLLKVLEEIEKETDIKIELVSEHPDGKYEFLIEAPLEEAVKIAKKLKEAGNVEIVSA [r9_472_TrMRF] | 3.48 ± 0.12 kcal/mol |
| SAGGSAGGSAGGGMIPVSTSETVVPGPSRLVRRTTTTYRDPVTGKLYTTSSTTVLPPAASAGGSAGGSAGGS [r10_190_JUSTAS] | 1.44 ± 0.064 kcal/mol |
| SAGGSAGGSAGGSMSSSSSPLPDEDGLVTRGKSSEPSPPFTWTTTVDSSGVPSTTVTSLESAGGSAGGSAGG [r7_187_JUSTAS] | 0.602 ± 0.051 kcal/mol |
| SAGGSAPNKWKTVDIEFMFPPDNLEEFVDEISKLPGIKASIEPVEYDPEGMYWMKIDITIPPGMKISAGGSA [r15_441_TrROS] | 1.74 ± 0.12 kcal/mol |
| SAGGSAGGSDWRPIKIWYPLDDLEQIKEKIREDGITVEINVQRDPNGKLYAPVTIWVPKGAKPSAGGSAGGS [r12_653_TrROS] | 1.57 ± 0.032 kcal/mol |
| SAGGSAGGMLPAEELADYLEKNPGIEIEDIEPPDPGYITVKIKFPRPDPNGEKHKVEVTIQFPVSAGGSAGG [r6_154_TrROS] | 1 ± 0.075 kcal/mol |
| SAGGSAGGSAGGGSSGVSYGSVPIVIRDPSGNVVSTLTLRVYPDGTVVLEFPDGSLLLLSAGGSAGGSAGGS [r10_972_JUSTAS] | 4.11 ± 0.045 kcal/mol |
| SAGGSAGGSMPTSSSSSLSSEAEVEALIEELKKKGAKEFTVDPGPGALTLTITYDDSTLTISSSAGGSAGGS [r12_846_JUSTAS] | 1.38 ± 0.057 kcal/mol |
| SAETRTLTIRIPAKDLTPEQIRALLRALLPEDATITEVRIERDEDGYITVTIVVTNPDGSKQEIRLVFPSAG [r14_30_TrROS_Hall] | 2.64 ± 0.031 kcal/mol |
| SAKMYLVIIEIKKDGKTYKLIIIIPEEDENLTEEEILEKIRELAEKLNLEIEKIEVIPLEEAKKLLEELSAG [r14_953_TrROS_Hall] | 5.25 ± 0.13 kcal/mol |
| SAGGSAGGSMKTITVTFSSEEEAKKAAEEILKKEGFDEKIKEVTLTYSKEGNVLTGTVTVKTPSAGGSAGGS [r12_7_JUSTAS] | 1.2 ± 0.046 kcal/mol |
| SAGGSAGGSAGHRSVMVTVDDIAKENGIKIPPGSYLMVTVEGNKVKDIMIQPMKPKPEDPSAGGSAGGSAGG [r11_616_TrROS] | -0.0198 ± 0.24 kcal/mol |
| SMKPGEKLEIEVEIKVEEEDEEKRKKALEEAEEKLRELFEKLGLKDIKKVEVVEVEKLPDGTVKVKIRIDSA [r9_754_TrROS_Hall] | 1.32 ± 0.11 kcal/mol |
| SAGGSAGGMIYKFTYPKGEPPLLFTYDPSTGKVTVTEPKTGKPLGTVDLSLEEAVKAGARIEPVSAGGSAGG [r6_832_JUSTAS] | 0.96 ± 0.085 kcal/mol |
| SAGGSARYYFIVIEIWQPGKPVKFIIVVPKEDPKKFESEINEMFPGYNIDIKVIPFPSPEEAEDLFSAGGSA [r15_889_TrROS] | 2.97 ± 0.088 kcal/mol |
| SAGGKPGKWRKVEIWLPPDMPDIIEEIAKNWPNVNVDTERHPENGWYPVTGYFPDPNGKPVAKIHIWSAGGS [r8_267_TrROS] | 0.933 ± 0.17 kcal/mol |
| SAGKKKKKVKKKTVKLTITVKLKPGMTEEEALEKVKELAKALLPPGAKIKEVKFDKETKTVTVEIELTSAGG [r19_81_TrROS_Hall] | 2 ± 0.23 kcal/mol |
| SAGGKGPKKIILPLKFKIKTKPNEKKSKIKFKLSLKLFPKAKKVEVKSSIKPLKNNYALLDFDIVIEASAGG [r13_872_TrMRF] | 3.6 ± 0.13 kcal/mol |
| SAGGATPLPDGGYRLTYTVKLSPSESVEDAPKAAAALAEKYGVTPVAITVDPSTGTVTIDILLPPEVRSAGG [r13_178_JUSTAS] | 1.68 ± 0.11 kcal/mol |

| Sequence | folding stability dG unfold |
| --- | --- |
| SAGGPVIEVEKEYIPETGLVKVKVRDPSSDRELEIIAPSDLVDKIEKALENAPGTNSEAAVREALRDSAGGS [r8_484_TrMRF] | 0.921 ± 0.032 kcal/mol |
| SAGGSAGGSAGGKKVKVLTLTIELEVKDSNGKKYKVKATVTLIYDEKTKKLYLNISIEPSAGGSAGGSAGGS [r10_795_TrROS_Hall] | 5.05 ± 0.19 kcal/mol |
| SAGGSAGGSKLKPFPIKLPGDLSMTIVELPEDPRFIVTVWHPDGDKPIDSIEFEPDEFEANVGSAGGSAGGS [r20_190_TrMRF] | 0.793 ± 0.033 kcal/mol |
| SAMSPEEIRARARALLEEKYPDKPYTLLSVEVDPSTGRVTVTWESPTPEKTTVTTPLTVTFGADGSLRESAG [r14_183_JUSTAS] | 1.973 ± 0.017 kcal/mol |
| SAGGSAGGSAGDIDPEDDIFYLTVRLKDGVPFVLPVRYDDIPFIPPEFVEEATFHKPKDISAGGSAGGSAGG [r11_779_TrMRF] | 0.0924 ± 0.18 kcal/mol |
| SAGGMKKVKALVVANPFDPNKYKVFVKAEEEEKVFEFDPNNPEKIIEELEKLLPEDYKLDEIVFESGASAGG [r13_519_TrMRF] | 2.12 ± 0.058 kcal/mol |
| SAGGAEELAKALADELRKLFPGEEIEVTVELVEVEVEPGQKVTLPDGSTVEVPPGAKVLVLKITVKPSAGGS [r16_357_TrROS_Hall] | 3.56 ± 0.13 kcal/mol |
| SAGGMTTVTTTFTMSSEELKKFLEEKFGREVTKEEIIELIPKEKKIDVSESPQPNGTVKYTITITIEKSAGG [r13_869_JUSTAS] | 2.61 ± 0.044 kcal/mol |
| SAGGSAGGDGLELKLTFTIPVTARSPLGGSYPVYLRLTLTYRLDDPRWELDLYALDPNGNWYPVSAGGSAGG [r6_393_TrMRF] | 5.12 ± 0.092 kcal/mol |
| SAGGSAGGSAGGKKVILIRGLTPEEIEALAKELEELFPDLKVTIERLPGEEGTLLITVDSAGGSAGGSAGGS [r10_852_TrROS_Hall] | 1.91 ± 0.1 kcal/mol |
| SAGGNWRIVEIPIKFPPGQDLTTIAKEIAKELLPPGEDVSINVEQRPNYMRIYIFYPEDGKPLWEIEISAGG [r13_724_TrROS] | 2.81 ± 0.048 kcal/mol |
| SAGGSAGGMTLLIRDPETNELVEVTVEEKDGKLTLTVRNKKTGETTEIEIPLDEEPIEIVLLEPSAGGSAGG [r6_465_TrROS_Hall] | 2.61 ± 0.021 kcal/mol |
| SAGGSAGGSAMIEISSYTLPNGELVVEVTIPDPNSDKTTTLRGKYSSLEEAREEAEKLYLQSAGGSAGGSAG [r3_174_JUSTAS] | 1.84 ± 0.12 kcal/mol |
| SAGGSAGGMIKYSEEAPDPSYRTEVEVTPVPGKVAIKTTTYRNENGVWTAEESTSVVSPEALLSSAGGSAGG [r6_778_JUSTAS] | 0.341 ± 0.095 kcal/mol |
| SAGGSAGGSAGSMTVTLTITDPRNSATTTYTVPSSNYEEFLKANPEIEKNGWTVTVDTNGSAGGSAGGSAGG [r17_176_JUSTAS] | 0.903 ± 0.15 kcal/mol |
| SAGGMKEIAKALGIKPEDVKIEEEEIEVNGKKVKKIKITVKDKKTKKEYKIELTIVYDKNGKIVKIELSAGG [r13_358_TrROS_Hall] | 4.72 ± 0.28 kcal/mol |
| SAGGSAGGSAGGSMKIEIVTNDPKKAEEIKEKLEKEGYPKKKNPINIEVKEISEEELLKSAGGSAGGSAGGS [r4_281_JUSTAS] | 0.628 ± 0.053 kcal/mol |
| SAGGSAPLPAREFADEIMKKSPGPVEITVVFKEPDEYYVAKITMNPNNGKPQIKVERIPPEDLKKLSAGGSA [r15_156_TrROS] | 0.626 ± 0.23 kcal/mol |
| SAGGSAGGMLVFVVKKIKPGMSDEQKKALEKLVKPGDVIELSPEEIERLAKLPWIQEIKVYPLPSAGGSAGG [r6_381_TrROS_Hall] | 0.361 ± 0.34 kcal/mol |
| GEVVERLKLPDLELVEVRTTTEGDTTFVYVKLKRPDSYYVVKLTVTPATGEVTVTEEKKVSPNETLEEVLAS [r1_383_JUSTAS] | 2.76 ± 0.12 kcal/mol |
| SAGKQEIKVEAVFPGDTLEEFMEFIREFLAEQGLKIEPTEFEIDKVQPMPGGPMIRVTAWIKIEPPDDSAGG [r19_325_TrROS] | 2.95 ± 0.053 kcal/mol |

Assay: folding stability dG unfold from trypsin proteolysis; higher = more stable
In short: as §1

| Sequence | folding stability dG unfold |
| --- | --- |
| SAGGSAPPKRRERIIQIPIKMKPGQTADEMVDNIADWIMDLLPPDMRIEIEVEYHPENGWIMVKIESAGGSA [r15_739_TrROS] | 1.21 ± 0.089 kcal/mol |
| SAGGSAGGSAGPVVVEVDGKLVIFNPEDGTVTVFEFDKDGKLVEEKEFTVPPEVTLVEEDSAGGSAGGSAGG [r17_385_TrROS_Hall] | 1.42 ± 0.11 kcal/mol |
| SMPLLVKVDTPEQREKLLKVLEEIEKETDIKIELVSEHPDGKYEFLIEAPLEEAVKIAKKLKEAGNVEIVSA [r9_472_TrMRF] | 3.89 ± 0.19 kcal/mol |
| SAGGSAGGSAGGGMIPVSTSETVVPGPSRLVRRTTTTYRDPVTGKLYTTSSTTVLPPAASAGGSAGGSAGGS [r10_190_JUSTAS] | -0.396 ± 0.12 kcal/mol |
| SAGGSAGGSAGGSMSSSSSPLPDEDGLVTRGKSSEPSPPFTWTTTVDSSGVPSTTVTSLESAGGSAGGSAGG [r7_187_JUSTAS] | -0.484 ± 0.1 kcal/mol |
| SAGGSAPNKWKTVDIEFMFPPDNLEEFVDEISKLPGIKASIEPVEYDPEGMYWMKIDITIPPGMKISAGGSA [r15_441_TrROS] | 1.16 ± 0.048 kcal/mol |
| SAGGSAGGSDWRPIKIWYPLDDLEQIKEKIREDGITVEINVQRDPNGKLYAPVTIWVPKGAKPSAGGSAGGS [r12_653_TrROS] | 0.998 ± 0.039 kcal/mol |
| SAGGSAGGMLPAEELADYLEKNPGIEIEDIEPPDPGYITVKIKFPRPDPNGEKHKVEVTIQFPVSAGGSAGG [r6_154_TrROS] | 1.91 ± 0.24 kcal/mol |
| SAGGSAGGSAGGGSSGVSYGSVPIVIRDPSGNVVSTLTLRVYPDGTVVLEFPDGSLLLLSAGGSAGGSAGGS [r10_972_JUSTAS] | 3.38 ± 0.081 kcal/mol |
| SAGGSAGGSMPTSSSSSLSSEAEVEALIEELKKKGAKEFTVDPGPGALTLTITYDDSTLTISSSAGGSAGGS [r12_846_JUSTAS] | 0.838 ± 0.033 kcal/mol |
| SAETRTLTIRIPAKDLTPEQIRALLRALLPEDATITEVRIERDEDGYITVTIVVTNPDGSKQEIRLVFPSAG [r14_30_TrROS_Hall] | 2.527 ± 0.024 kcal/mol |
| SAKMYLVIIEIKKDGKTYKLIIIIPEEDENLTEEEILEKIRELAEKLNLEIEKIEVIPLEEAKKLLEELSAG [r14_953_TrROS_Hall] | 3.66 ± 0.074 kcal/mol |
| SAGGSAGGSMKTITVTFSSEEEAKKAAEEILKKEGFDEKIKEVTLTYSKEGNVLTGTVTVKTPSAGGSAGGS [r12_7_JUSTAS] | 0.449 ± 0.042 kcal/mol |
| SAGGSAGGSAGHRSVMVTVDDIAKENGIKIPPGSYLMVTVEGNKVKDIMIQPMKPKPEDPSAGGSAGGSAGG [r11_616_TrROS] | -0.499 ± 0.44 kcal/mol |
| SMKPGEKLEIEVEIKVEEEDEEKRKKALEEAEEKLRELFEKLGLKDIKKVEVVEVEKLPDGTVKVKIRIDSA [r9_754_TrROS_Hall] | 2.39 ± 0.18 kcal/mol |
| SAGGSAGGMIYKFTYPKGEPPLLFTYDPSTGKVTVTEPKTGKPLGTVDLSLEEAVKAGARIEPVSAGGSAGG [r6_832_JUSTAS] | 0.44 ± 0.073 kcal/mol |
| SAGGSARYYFIVIEIWQPGKPVKFIIVVPKEDPKKFESEINEMFPGYNIDIKVIPFPSPEEAEDLFSAGGSA [r15_889_TrROS] | 2.26 ± 0.1 kcal/mol |
| SAGGKPGKWRKVEIWLPPDMPDIIEEIAKNWPNVNVDTERHPENGWYPVTGYFPDPNGKPVAKIHIWSAGGS [r8_267_TrROS] | 0.185 ± 0.064 kcal/mol |
| SAGKKKKKVKKKTVKLTITVKLKPGMTEEEALEKVKELAKALLPPGAKIKEVKFDKETKTVTVEIELTSAGG [r19_81_TrROS_Hall] | 2.15 ± 0.054 kcal/mol |
| SAGGKGPKKIILPLKFKIKTKPNEKKSKIKFKLSLKLFPKAKKVEVKSSIKPLKNNYALLDFDIVIEASAGG [r13_872_TrMRF] | 3.53 ± 0.23 kcal/mol |
| SAGGATPLPDGGYRLTYTVKLSPSESVEDAPKAAAALAEKYGVTPVAITVDPSTGTVTIDILLPPEVRSAGG [r13_178_JUSTAS] | 1.01 ± 0.046 kcal/mol |
